# Where no end group is shown, it is not given here.
# Molecular target: monoclonal antibody mAB 198
# Experiment: peptide microarray, fluorescence, linear peptide
row,relative signal [%],Binder
1,6.5,RLRYNPADY
2,6,ALRWNPADY
3,6.5,"NPADYGN [NPADYGN, linear mimotope]"
4,6.7,"CNLKYNP [CNLKYNP, linear mimotope]"
5,6.8,VDCNLKFNP
6,6.5,LRWNPADYPGI
7,6.1,VDCNLKYNP
8,6.9,"RGNPADY [RGNPADY, linear mimotope]"
9,31.6,LRVNPADYG
10,6.1,LRPNPADYG
11,6.7,HRLRWNPAD
12,6.6,HSLRWNPAD
13,6.8,DVRLRWNPSDY
14,6.8,RIRWNPADY
15,6.4,QWVDCNLKFNP
16,6.9,RLRGNPADY
17,6.7,SLRVNPADY
18,6.5,SLRFNPADY

# Molecular target: monoclonal antibody mAB 198
# Experiment: peptide microarray, fluorescence, cyclic peptide
row,relative signal [%],Binder
1,37.5,"RFNPADY (also: cyclic peptide, ring type and places not given here) [RFNPADY, cyclic mimotope]"
2,100,"VRLRWNPADYP (also: cyclic peptide, mode of cyclisation not given here)"
3,45.1,"LRVNPADYG (also: cyclic peptide, mode of cyclisation not given here)"
4,37.3,"RLRLNPADY (also: cyclic peptide, ring type and places not given here)"
5,42.3,"RLNPADY (also: cyclic peptide, ring type and places not given here) [RLNPADY, cyclic mimotope]"
6,43.2,"WIDVRLRGNPA (also: cyclic peptide, mode of cyclisation not given here)"
7,61.3,"RLRVNPADY (also: cyclic peptide, ring type and places not given here)"
